Test results taken from US20210283212A1 (RA PHARMACEUTICALS, published 2021).
Starred links: 1 amine or outer side, 2 acyl side, 3 side chain; linkers in the order of their positions; H or OH if unused. Positions of bridges follow the written chain, without caps; N, C: chain ends. Non-standard residues stand in square brackets, D forms with d. Primed or numbered codes have the meaning given here. No end group written: not given here. mXylyl(3) = bridging moiety between the two residues given in brackets; m‑xylyl = bridging moiety between the two residues given in brackets; Tyr(OMe) = O-methyl tyrosine, COc1ccc(C[C@H](N[*:1])C(=O)[*:2])cc1; Phe(3-CH2NH2) = O=C([C@H](Cc1cccc(CN[*:3])c1)N[*:1])[*:2]; mXylyl″ = bridging moiety between the two marked residues; Trp(7-aza) = N[C@@H](Cc1c[nH]c2ncccc12)C(=O)O; mXylyl(4) = bridging moiety between residues; NMePhe(4-F) = CN[C@@H](Cc1ccc(F)cc1)C(=O)O; pXylyl = bridging moiety between residues; PEG2000 = polyethylene glycol, 2000 Da; Phe(4-F) = N[C@@H](Cc1ccc(F)cc1)C(=O)O; 2Nal = N[C@@H](Cc1ccc2ccccc2c1)C(=O)O; mXylylene = c1cc(C[*:1])cc(C[*:2])c1; hPhe = N[C@@H](CCc1ccccc1)C(=O)O; Phg(2-OMe)′ = not defined here; dChg = N[C@@H](C(=O)O)C1CCCCC1; Chg = N[C@H](C(=O)O)C1CCCCC1; Phg = N[C@H](C(=O)O)c1ccccc1; Tle = CC(C)(C)[C@H](N)C(=O)O; NMeS = CN[C@@H](CO)C(=O)O; NMeA = CN[C@@H](C)C(=O)O; Ac5c = NC1(C(=O)O)CCCC1; Nva = CCC[C@H](N)C(=O)O; Aib = CC(C)(N)C(=O)O; Sar = CNCC(=O)O

What follows are binders tested against T1, human C5 protein (human, UniProt P01031 19-673; P01031 678-1676) (assay: cell-based or functional assay).

Row | Binder | Avg. IC50, human hemolysis assay [nM]
1 | Ac-[Nva]C[Phg]T[Trp(7-aza)]E[Tyr(OMe)][NMeS]HC[Nva]-NH2 (linker 2-10 via mXylyl(3)) [R3074] | 308
2 | Ac-[Chg]C[Phg]T[Trp(7-aza)]EY[NMeS]AC[Nva]-NH2 (linker 2-10 via mXylyl(3)) [R3089] | > 15000
3 | Ac-VC[Phg]T[Trp(7-aza)]EY[NMeS]AC[Nva]-NH2 (linker 2-10 via mXylyl(3)) [R3083] | > 25000
4 | Ac-[Nva]CKE[Phg]YC[NMeS][Tle]K[Trp(7-aza)]EY-NH2 (linker 2-7 via mXylyl″) [R3007] | 314
5 | Ac-[Nva]C[Phg]T[Trp(7-aza)]EF[NMeS]AC[Nva]-NH2 (linker 2-10 via mXylyl(3)) [R3100] | 626
6 | Ac-[Nva]C[Phg(2-OMe)′]T[Trp(7-aza)]EY[NMeS]HC[Nva]-NH2 (linker 2-10 via mXylyl(3)) [R3087] | > 25000
7 | Ac-[Nva]CFT[Trp(7-aza)]EY[NMeS]AC[Nva]-NH2 (linker 2-10 via mXylyl(3)) [R3090] | > 100000
8 | Ac-[Nva]C[Phg]T[Trp(7-aza)]EYPHC[Nva]-NH2 (linker 2-10 via pXylyl) [R3065] | 394
9 | Ac-YEN[Tle]Y[Trp(7-aza)]EY[Sar][Nva][NMeS]-NH2 (SMILES CCC[C@H](NC(=O)CN(C)C(=O)[C@H](Cc1ccc(O)cc1)NC(=O)[C@H](CCC(=O)O)NC(=O)[C@H](Cc1c[nH]c2ncccc12)NC(=O)[C@H](Cc1ccc(O)cc1)NC(=O)[C@@H](NC(=O)[C@H](CC(N)=O)NC(=O)[C@H](CCC(=O)O)NC(=O)[C@H](Cc1ccc(O)cc1)NC(C)=O)C(C)(C)C)C(=O)N(C)[C@@H](CO)C(N)=O) [R3006] | 267
10 | Ac-[Nva]C[Phg]T[Trp(7-aza)]E[Phe(4-F)][NMeS]HC[Nva]-NH2 (linker 2-10 via mXylyl(3)) [R3073] | 403
11 | Ac-[Nva]C[Phg]T[Trp(7-aza)]DY[NMeS]AC[Nva]-NH2 (linker 2-10 via mXylyl(3)) [R3097] | > 100000
12 | Ac-[Nva]C[Phg]T[Trp(7-aza)]QY[NMeS]AC[Nva]-NH2 (linker 2-10 via mXylyl(3)) [R3098] | > 100000
13 | Ac-[Nva]C[Chg]T[Trp(7-aza)]EY[NMeS]HC[Nva]-NH2 (linker 2-10 via pXylyl) [R3058] | > 10000
14 | Ac-[Nva]C[Phg]T[Trp(7-aza)]EY[NMeS]C[Nva]-NH2 (linker 2-9 via mXylyl(3)) [R3080] | > 50000
15 | Ac-[Nva]C[Phg]T[Trp(7-aza)]E[hPhe][NMeS]AC[Nva]-NH2 (linker 2-10 via mXylyl(3)) [R3095] | > 50000
16 | VVYENGYWEYPGVK (Ac-Nvl-Nvl-Y-E-N-Tbg-Y-azaTrp-E-Y-P-Chg-Nvl-K-(BODIPY-TMR-X) NH2) [R3076] | 297
17 | [Nva]CCN[Tle][Phg]C[Tle][NMeS]C[Tle]-NH2 (linker (positions not given here) via mXylylene; also: mXylyl bicyclo: linked cysteines not given here) [R3053] | > 100000
18 | Ac-[Nva]C[Phg]T[Trp(7-aza)]EYSAC[Nva]-NH2 (linker 2-10 via mXylyl(3)) [R3084] | > 100000
19 | Ac-[Nva]C[Phg]T[Trp(7-aza)]NY[NMeS]AC[Nva]-NH2 (linker 2-10 via mXylyl(3)) [R3099] | > 100000
20 | [Nva]CY[Tle][Phg]N[Sar]LC[Phg][NMeA]-NH2 (linker 2-9 via mXylyl(4)) [R3052] | > 100000
21 | MCVERFCD[Tle]Y[Trp(7-aza)]EYP[Phg][Nva]-NH2 (linker 2-7 via mXylyl(4); not fully specified; printed as [mXylyl(2,7)]M-C-V-E-R-F-C-D-Tbg-Y-azaTrp-E-Y-P-Phg-Nvl-NH2) [R3057] | 12.4
22 | PEG2000-[Nva][Nva]YEN[Tle]Y[Trp(7-aza)]EYP[Phg][Nva]-NH2 [R3078] | 568
23 | [Nva]CY[NMeS][Phg][NMePhe(4-F)][NMeS]H[NMePhe(4-F)]GC-NH2 (linker 2-11 via mXylyl(3)) [R3075] | > 75000
24 | Ac-[Nva]C[Phg][Aib][Trp(7-aza)]EY[NMeS]HC[Nva]-NH2 (linker 2-10 via mXylyl(3)) [R3096] | > 50000
25 | [Nva]CY[NMeS][Phg][NMePhe(4-F)][NMeS]H[NMePhe(4-F)][Sar]C-NH2 (linker 2-11 via mXylyl(4)) [R3051] | > 100000
26 | Ac-[Nva]C[dChg]T[Trp(7-aza)]EY[NMeS]AC[Nva]-NH2 (linker 2-10 via mXylyl(3)) [R3093] | > 100000
27 | Ac-[Nva][Nva]YEN[Tle]Y[Trp(7-aza)]EYP[Chg][Nva]K-NH2 (SMILES CCC[C@H](NC(C)=O)C(=O)N[C@@H](CCC)C(=O)N[C@@H](Cc1ccc(O)cc1)C(=O)N[C@@H](CCC(=O)O)C(=O)N[C@@H](CC(N)=O)C(=O)N[C@H](C(=O)N[C@@H](Cc1ccc(O)cc1)C(=O)N[C@@H](Cc1c[nH]c2ncccc12)C(=O)N[C@@H](CCC(=O)O)C(=O)N[C@@H](Cc1ccc(O)cc1)C(=O)N1CCC[C@H]1C(=O)N[C@H](C(=O)N[C@@H](CCC)C(=O)N[C@@H](CCCCN)C(N)=O)C1CCCCC1)C(C)(C)C) [R3072] | 26.9
28 | Ac-[Nva][Nva]YEN[Tle]Y[Trp(7-aza)]EYP[Chg][Nva]K (not fully specified (residue 14, C-terminus); printed as Ac-Nvl-Nvl-Y-E-N-Tbg-Y-azaTrp-E-Y-P-Chg-Nvl-K-(PEG2000) NH2; also: PEG2000 at C-terminal Lys (K-(PEG2000) NH2), attachment unclear) [R3077] | 81.7
29 | Ac-[Nva]CY[Trp(7-aza)][Sar][Tle][Nva][Trp(7-aza)]EYP[Phg]P-NH2 (SMILES CCC[C@H](NC(C)=O)C(=O)N[C@@H](CS)C(=O)N[C@@H](Cc1ccc(O)cc1)C(=O)N[C@@H](Cc1c[nH]c2ncccc12)C(=O)N(C)CC(=O)N[C@H](C(=O)N[C@@H](CCC)C(=O)N[C@@H](Cc1c[nH]c2ncccc12)C(=O)N[C@@H](CCC(=O)O)C(=O)N[C@@H](Cc1ccc(O)cc1)C(=O)N1CCC[C@H]1C(=O)N[C@H](C(=O)N1CCC[C@H]1C(N)=O)c1ccccc1)C(C)(C)C) [R3005] | 66.7
30 | Ac-[Nva]SYEC[Tle]Y[Trp(7-aza)]EYP[Chg]C[Nva]-NH2 (linker 5-13 via mXylyl(3)) [R3086] | > 50000

Target: T1, human C5 protein
Assay: cell-based or functional assay
Remark: another data set of the same source

Row | Binder | Avg. IC50, hemolysis assay with C5 depleted sera [nM]
31 | Ac-CVERFCD[Tle]Y[Trp(7-aza)]E[(m-Cl-homo)Phe]P[Chg][Nva] (linker 1-6 via m‑xylyl) [R3179] | 83
32 | VERFCD[Tle]Y[Trp(7-aza)]EYP[Chg][Nva] (thioether 1-5) [R3184] | 4
33 | Ac-CVERFCD[Tle]Y[Trp(7-aza)]EWP[Chg][Nva] (linker 1-6 via m‑xylyl) [R3177] | 12
34 | Ac-CVERFC[Ac5c][Tle]Y[Trp(7-aza)]EYP[Chg][Nva] (linker 1-6 via m‑xylyl) [R3185] | 12.5
35 | Ac-CVERFCD[Tle]Y[Trp(7-aza)]E[2Nal]P[Chg][Nva] (linker 1-6 via m‑xylyl) [R3180] | 29
36 | Ac-CVERFCD[Tle]Y[Phe(3-CH2NH2)]EYP[Chg][Nva] (linker 1-6 via m‑xylyl) [R3181] | 1500
